# Laboratory results as given in the Immune Epitope Database (IEDB).
# Columns and labels:
# HLA-A*02:03 = experiment: IEDB peptide-MHC binding, purified MHC/direct/fluorescence; filed as Kd, often an IC50 or EC50 that approximates it; ≥ and ≤ were set here for values at or beyond the usual limits of such assays
# HLA-A*02:11 = experiment: as above
# HLA-A*02:12 = experiment: as above
# HLA-A*02:16 = experiment: as above
# HLA-A*02:19 = experiment: as above
# HLA-A*03:01 = experiment: as above
# HLA-A*23:01 = experiment: as above
# HLA-A*24:03 = experiment: as above
# HLA-A*29:02 = experiment: as above; details: source organism: Reston ebolavirus
# HLA-A*68:02 = experiment: as above
# HLA-B*27:05 [1] = experiment: as above; details: source organism: Reston ebolavirus - Reston
# HLA-A*02:01 = experiment: IEDB peptide-MHC binding, purified MHC/competitive/fluorescence; filed as Kd, often an IC50 or EC50 that approximates it; ≥ and ≤ were set here for values at or beyond the usual limits of such assays
# HLA-A*26:01 = experiment: as above
# HLA-A*69:01 = experiment: as above
# HLA-B*15:01 [2] = experiment: as above
# HLA-B*15:17 = experiment: as above
# HLA-B*18:01 = experiment: as above
# HLA-B*27:03 = experiment: as above
# HLA-B*39:01 = experiment: as above
# HLA-B*46:01 = experiment: as above
# HLA-B*51:01 = experiment: as above
# HLA-B*57:01 = experiment: as above
# HLA-A*24:02 = experiment: IEDB peptide-MHC binding, purified MHC/competitive/fluorescence; ≥ and ≤ were set here for values at or beyond the usual limits of such assays; details: source organism: Zaire ebolavirus
# HLA-B*07:02 [3] = experiment: as above; details: source organism: Zaire ebolavirus
# HLA-B*08:01 = experiment: as above; details: source organism: Zaire ebolavirus
# HLA-B*15:01 [4] = experiment: as above; details: source organism: Zaire ebolavirus
# HLA-B*07:02 [5] = experiment: IEDB peptide-MHC binding, purified MHC/direct/fluorescence; filed as Kd, often an IC50 or EC50 that approximates it; ≥ and ≤ were set here for values at or beyond the usual limits of such assays; details: source organism: Zaire ebolavirus
# HLA-B*27:05 [6] = experiment: IEDB peptide-MHC binding, purified MHC/competitive/fluorescence; filed as Kd, often an IC50 or EC50 that approximates it; ≥ and ≤ were set here for values at or beyond the usual limits of such assays; details: source organism: Bacillus anthracis str. A0488
# [7] = source organism: Reston ebolavirus
# [8] = source organism: Zaire ebolavirus
sequence,measurement,setting,value
RRELSKEKL,Kd,HLA-A*02:03; [7],≥ 20 µM
same,Kd,HLA-A*02:11; [7],≥ 20 µM
same,Kd,HLA-A*02:12; [7],≥ 20 µM
same,Kd,HLA-A*02:16; [7],≥ 20 µM
same,Kd,HLA-A*02:19; [7],≥ 20 µM
same,Kd,HLA-A*03:01; [7],≥ 20 µM
same,Kd,HLA-A*23:01; [7],≥ 20 µM
same,Kd,HLA-A*24:03; [7],≥ 20 µM
same,Kd,HLA-A*29:02,≥ 20 µM
same,Kd,HLA-A*68:02; [7],≥ 20 µM
same,Kd,HLA-B*27:05 [1],≥ 20 µM
same,Kd,HLA-A*02:01; [7],≥ 20 µM
same,Kd,HLA-A*26:01; [7],≥ 20 µM
same,Kd,HLA-A*69:01; [7],≥ 20 µM
same,Kd,HLA-B*15:01 [2]; [7],≥ 20 µM
same,Kd,HLA-B*15:17; [7],≥ 20 µM
same,Kd,HLA-B*18:01; [7],≥ 20 µM
same,Kd,HLA-B*27:03; [7],≥ 20 µM
same,Kd,HLA-B*39:01; [7],≥ 20 µM
same,Kd,HLA-B*46:01; [7],≥ 20 µM
same,Kd,HLA-B*51:01; [7],≥ 20 µM
same,Kd,HLA-B*57:01; [7],≥ 20 µM
RDRFKRTSF,IC50,HLA-A*24:02,18.9 µM
same,IC50,HLA-B*07:02 [3],≥ 74.2 µM
same,IC50,HLA-B*08:01,≥ 114 µM
same,IC50,HLA-B*15:01 [4],36.4 µM
same,Kd,HLA-A*02:03; [8],≥ 20 µM
same,Kd,HLA-A*02:11; [8],≥ 20 µM
same,Kd,HLA-A*02:12; [8],≥ 20 µM
same,Kd,HLA-A*02:16; [8],≥ 20 µM
same,Kd,HLA-A*02:19; [8],≥ 20 µM
same,Kd,HLA-A*03:01; [8],≥ 20 µM
same,Kd,HLA-A*23:01; [8],≥ 20 µM
same,Kd,HLA-A*24:03; [8],≥ 20 µM
same,Kd,HLA-A*68:02; [8],≥ 20 µM
same,Kd,HLA-B*07:02 [5],≥ 20 µM
same,Kd,HLA-A*02:01; [8],≥ 20 µM
same,Kd,HLA-A*26:01; [8],≥ 20 µM
same,Kd,HLA-A*69:01; [8],≥ 20 µM
same,Kd,HLA-B*15:01 [2]; [8],≥ 20 µM
same,Kd,HLA-B*15:17; [8],≥ 20 µM
same,Kd,HLA-B*18:01; [8],≥ 20 µM
same,Kd,HLA-B*27:03; [8],≥ 20 µM
same,Kd,HLA-B*39:01; [8],≥ 20 µM
same,Kd,HLA-B*46:01; [8],≥ 20 µM
same,Kd,HLA-B*51:01; [8],≥ 20 µM
same,Kd,HLA-B*57:01; [8],≥ 20 µM
NRYGLPEKM,Kd,HLA-B*27:05 [6],0.0175 µM
